This assay deals with malignant ascites. The experiment in a line: Clinical monotherapy of rhTNFm1, malignant ascites. The class given is in vivo, human. To be noted: 28 patients, monotherapy i.p. The text has this:
Patients were selected based on the following criteria: i) measurable, objective tumor; ii) Karnofsky performance status (KPS)≧60; iii) age 18-75; iv) major organs in basically normal condition; v) no chemotherapy, radiotherapy and biologic therapy within the last month; vi) predicted ≧3 mon. survival; and vii) with patient's informed consent signed.
Patients were excluded based on the following criteria: i) with history of allergic reactions to TNF or its derivatives; ii) pregnant or lactating women; iii) major organs with obvious damages or malfunction; iv) in ≧38° C. fever; v) with obvious tendency to haemorrhage; vi) with history of hypo- or hypertension; vii) with serious albuminemia; and viii) with strong tendency of disobedience or resistance.
Patients were removed from the evaluation if any of the following conditions apply: i) treatment was not completed according to the protocol; ii) incomplete records; and iii) treatment using cancer therapies not in the protocol. However, patients who withdrew due to adverse reactions to the therapy were still included in the evaluation.
The results of the treatment of malignant pleural effusion (or hydrothorax) and ascites were evaluated based on a modified Millar standard (Millar J W, Hunfer A M, Home N W. (1980) “Inerapleural immunotherapy with CP”, in Recurrent Malignant Pleural Effusions. Thorax 35:856): i) complete response (CR)—complete disappearance of pleural effusion or ascites for at least 1 month; ii) partial response (PR)—reduction by at least 1 grade for at least 1 month; iii) minimum response (MR)—reduction in the levels of pleural effusion or ascites within the same grade for at least 1 month; iv) stabilized (SD)—levels of pleural effusion or ascites maintained within the same grade for at least 1 month; and progressed (PD): increase in the levels of pleural effusion or ascites compared with those before the treatment.
It is noted that Table III includes the patients who withdrew due to […], including 1 with malignant pleural effusion and 1 with malignant ascites. For patients with malignant ascites, rhTNFm1 was reconstituted in 30-50 ml normal saline and administered intraperitoneally (i.p.) at 2,000,000-3,000,000 units each time, 1-2 times a week, with 2-3 weeks as one treatment cycle. Optionally, rhTNFm1 was administered to the patients by alternating between i.p. injection and i.v. injection (at 600,000-900,000 unit/m^2 per day continuing for 28 days as one treatment cycle). On the day when rhTNFm1 was administered via i.p. injection, administration of rhTNFm1 via i.v. injection was stopped.

B1: rhTNFm1: Recombinant human TNF-α mutant 1 expressed in E. coli; SEQ ID NO: 3 with N-terminal methionine (FIG. 1, 2) (protein)
chain: MRKRKPVAHVVANPQAEGQLQWLNRRANALLANGVELRDNQLVVPSEGLYLIYSQVLFKGQGCPSTHVLLTHTISRIAVSYQTKVNLLSAIKSPCQRETPEGAEAKPWYEPIYLGGVFQLEKGDRLSAEINRPDYLDFAESGQVYFGIIAQ
modifications: rhTNFm1 with Met
For B1, the “Response Rate (%) CR” value is recorded as 3.57%, the “Response Rate (%) CR + PR” value is listed as 42.86% and the “Response Rate (%) PR” value is recorded as 39.29%. Also, under “patient count”, the “Efficacy CR” value came out at 1, the “Efficacy MR” value was determined as 3, the “Efficacy PD” value was 1 and the “Efficacy PR” value is 11. Besides, the “Efficacy SD” value (patient count) is 12.

The record behind these values is patent US20060263331A1, “Therapeutic use of tumor necrosis factor-alpha mutein” (priority 2002, published 2006).
